Test results reported in patent publication US8147817B2, “IL-33 in the treatment and diagnosis of diseases and disorders” (The Brigham and Women's Hospital, Inc., priority 2006, dated 2012).
Entries after “also recorded” stand apart in the source; their conditions may differ.

Columns and labels:
[1] = system: WT and ST2KO mice after MI; assay: Experimental myocardial infarction with IL-33 treatment; assay type: in vivo, mouse; conditions: recombinant rat IL-33 intraperitoneal daily up to 4 weeks
Text: 86 mice with wild-type (WT) or ST2 knockout (ST2KO) genotypes were randomized into 4 subgroups, Sham or MI operated, and with or without IL-33 treatment. Experimental myocardial infraction operation was done by permanent occlusion of the left anterior coronary artery via open-chest approach under deep anesthesia. IL-33 treatment was done by a single 2 microgram/kg on each day, intraperitoneal, of recombinant rat IL-33 protein, from the day of operation up to 4 weeks.
MI was produced on 8-10 week old mice.

IκBα = IκBα phosphorylation by Western analysis in cardiomyocytes; assay type: cell-based, rat
Protocol: Western analyses were performed as described previously (45). Membranes were incubated with primary antibodies overnight (anti-p44/42MAPK diluted 1:500; phospho-p44/42MAPK (Thr202/Tyr204) 1:1000; phospho-JNK (Thr183/Tyr185) 1:500; p38MAPK 1:500; phospho-p38MAPK (Thr180/Tyr182) 1:500; phospho-Akt (Ser473) 1:1000 and phospho-IκBα 1:1000, all from Cell Signaling, anti-mouse ST2L, from R&D 1:1000 and anti-IL-33 as described above, 1:500) at 4° C., detected with horseradish peroxidase-conjugated antibodies and enhanced chemiluminescence.

NF-κB = NF-κB nuclear binding activity by EMSA in cardiomyocytes; assay type: cell-based, rat
Protocol: Electromobility shift assays were performed as described previously (8). Cells were lysed for 10 minutes on ice in a solution containing 10 mM HEPES (pH 7.6), 15 mM KCl, 2 mM MgCl2, 0.1 mM ethylenediamine tetraacetic acid (EDTA), 1 mM dithiothreitol (DTT), 0.5 mM phenylmethylsulphonylfluoride (PMSF), 10 μg/mL leupeptin and 0.2% Nonident P-40. Dishes were gently scraped, and nuclei were collected by centrifugation at 800 g for 30 seconds and then suspended in a solution of 50 mM HEPES, 400 mM KCl, 0.1 mM EDTA, 10% glycerol, 1 mM DTT, 0.5 mM PMSF and 10 μg/mL leupeptin. The mixture was incubated on ice for 30 minutes, and the supernatant was collected after centrifugation for 15 minutes at 400 g. Binding reactions were performed with 5 or 10 μg of nuclear protein in 10 mM Tris, 1 mM DTT, 1 mM EDTA, 5% glycerol, 0.1% Triton X-100, 1 mg poly(dIdC), 5 μg bovine serum albumin (BSA) and approximately 10,000 cpm of −32P-labeled oligonucleotide. The binding reactions for AP-1 activity also contained 5 mM MgCl2. Control reaction mixtures contained a 100-fold excess of unlabeled oligonucleotide and were incubated with nuclear extracts of IL-1β-treated cells. DNA complexes were separated on a 4% nondenaturing polyacrylamide gel in Tris-HCl (6.7 mM), EDTA (1 mM) and ammonium acetate (3.3 mM). The oligonucleotides contained the NF-B binding site (sequence: 5′-AGTTGAGGGGACTTTCCCAGGC-3′ (SEQ ID NO: 15)) and were labeled by standard procedures.
EMSAs were performed as described previously (47). Cells were lysed for 10 minutes on ice in 10 mM HEPES (pH 7.6), 15 mM KCl, 2 mM MgCl2, 0.1 mM EDTA, 1 mM DTT, 0.5 mM PMSF, 10 μg/mL leupeptin, and 0.2% Nonident P-40. Dishes were gently scraped, and nuclei were collected by centrifugation at 800 g for 30 seconds and then suspended in a solution of 50 mM HEPES, 400 mM KCl, 0.1 mM EDTA, 10% glycerol, 1 mM DTT, 0.5 mM PMSF, and 10 μg/mL leupeptin. The mixture was incubated on ice for 30 minutes, and the supernatant was collected after centrifugation for 15 minutes at 400 g. Binding reactions were performed with 5 or 10 μg of nuclear protein in 10 mM Tris, 1 mM DTT, 1 mM EDTA, 5% glycerol, 0.1% Triton X-100, 1 mg poly(dIdC), […] BSA, and 10,000 cpm of [^32P]-labeled oligonucleotide. The specific NF-κB consensus oligonucleotides were 5′-[…]-3′ (SEQ ID NO: 15) and 5′-[…]-3′ (SEQ ID NO: 18) (Promega). Positive and negative control mixtures as well as specific competition mixtures were made as recommended by the manufacturer's instructions, using binding buffer with positive samples, labeled NF-κB oligonucleotides and 10-fold excess of cold NF-κB consensus oligonucleotides for specific competition. DNA complexes were separated on a 6% nondenaturing polyacrylamide gel in Tris-HCl (6.7 mM), EDTA (1 mM), and ammonium acetate (3.3 mM).

[2] = PDGF-BB (10 ng/ml) or TNF-α (10 ng/ml), IL-33 10 ng/ml

B1: IL-33: recombinant mature rat IL-33, starting with amino acid 109 of the full-length protein, N-terminal His tag (GenBank BC081993) (protein)
chain: SIQGTSLLTESCALSTYNDQSVSFVLENGCYVINVEDCGKNQEKDKVLLRYYESSFPAQSGDGVDGKKLMVNMSPIKDTDIWLNANDKDYSVELQKGDVSPPDQAFFVLHKKSSDFVSFECKNLPGTYIGVKDNQLALVEENDESCNNIMFKLSKM
modifications: left off: small tags and cut ends
survival after infarction ([1]; ST2KO mice): eliminates this benefit
survival after infarction ([1]; WT mice): improves survival after infarction
reduction of IκBα phosphorylation induced by PDGF-BB or TNF-α (IκBα; [2]): not observed; also recorded: did not block IκBα phosphorylation
IκBα phosphorylation by agent alone (IκBα; cardiomyocytes): induced IκBα phosphorylation in both cell types
IκB phosphorylation under hypertrophic stimulus (IκBα; cardiomyocytes, co-treatment with IL-33): reduced IκB phosphorylation in cardiomyocytes
reduction of NF-κB nuclear binding activity induced by PDGF-BB or TNF-α (NF-κB; [2]): not observed; also recorded: did not block
NF-κB activation by agent alone (NF-κB; cardiomyocytes, angiotensin-II 1 μM, phenylephrine 50 μM, IL-33 10 ng/ml): independently activated NF-κB in both cell types; also recorded: mildly activated NF-κB
angiotensin-II- or phenylephrine-induced NF-κB activation (NF-κB; cardiomyocytes, co-treatment with IL-33 10 ng/ml): markedly attenuated
